Test results reported in paper PMC9486512 (Zoological Research, 2022).
Ends that are not written are not given here.

These molecules were tested against human voltage-gated sodium ion channel Nav1.7 (human) (assay: not given). Details: not given.
human voltage-gated sodium ion channel Nav1.7 (human), sequence (Q15858 whole entry): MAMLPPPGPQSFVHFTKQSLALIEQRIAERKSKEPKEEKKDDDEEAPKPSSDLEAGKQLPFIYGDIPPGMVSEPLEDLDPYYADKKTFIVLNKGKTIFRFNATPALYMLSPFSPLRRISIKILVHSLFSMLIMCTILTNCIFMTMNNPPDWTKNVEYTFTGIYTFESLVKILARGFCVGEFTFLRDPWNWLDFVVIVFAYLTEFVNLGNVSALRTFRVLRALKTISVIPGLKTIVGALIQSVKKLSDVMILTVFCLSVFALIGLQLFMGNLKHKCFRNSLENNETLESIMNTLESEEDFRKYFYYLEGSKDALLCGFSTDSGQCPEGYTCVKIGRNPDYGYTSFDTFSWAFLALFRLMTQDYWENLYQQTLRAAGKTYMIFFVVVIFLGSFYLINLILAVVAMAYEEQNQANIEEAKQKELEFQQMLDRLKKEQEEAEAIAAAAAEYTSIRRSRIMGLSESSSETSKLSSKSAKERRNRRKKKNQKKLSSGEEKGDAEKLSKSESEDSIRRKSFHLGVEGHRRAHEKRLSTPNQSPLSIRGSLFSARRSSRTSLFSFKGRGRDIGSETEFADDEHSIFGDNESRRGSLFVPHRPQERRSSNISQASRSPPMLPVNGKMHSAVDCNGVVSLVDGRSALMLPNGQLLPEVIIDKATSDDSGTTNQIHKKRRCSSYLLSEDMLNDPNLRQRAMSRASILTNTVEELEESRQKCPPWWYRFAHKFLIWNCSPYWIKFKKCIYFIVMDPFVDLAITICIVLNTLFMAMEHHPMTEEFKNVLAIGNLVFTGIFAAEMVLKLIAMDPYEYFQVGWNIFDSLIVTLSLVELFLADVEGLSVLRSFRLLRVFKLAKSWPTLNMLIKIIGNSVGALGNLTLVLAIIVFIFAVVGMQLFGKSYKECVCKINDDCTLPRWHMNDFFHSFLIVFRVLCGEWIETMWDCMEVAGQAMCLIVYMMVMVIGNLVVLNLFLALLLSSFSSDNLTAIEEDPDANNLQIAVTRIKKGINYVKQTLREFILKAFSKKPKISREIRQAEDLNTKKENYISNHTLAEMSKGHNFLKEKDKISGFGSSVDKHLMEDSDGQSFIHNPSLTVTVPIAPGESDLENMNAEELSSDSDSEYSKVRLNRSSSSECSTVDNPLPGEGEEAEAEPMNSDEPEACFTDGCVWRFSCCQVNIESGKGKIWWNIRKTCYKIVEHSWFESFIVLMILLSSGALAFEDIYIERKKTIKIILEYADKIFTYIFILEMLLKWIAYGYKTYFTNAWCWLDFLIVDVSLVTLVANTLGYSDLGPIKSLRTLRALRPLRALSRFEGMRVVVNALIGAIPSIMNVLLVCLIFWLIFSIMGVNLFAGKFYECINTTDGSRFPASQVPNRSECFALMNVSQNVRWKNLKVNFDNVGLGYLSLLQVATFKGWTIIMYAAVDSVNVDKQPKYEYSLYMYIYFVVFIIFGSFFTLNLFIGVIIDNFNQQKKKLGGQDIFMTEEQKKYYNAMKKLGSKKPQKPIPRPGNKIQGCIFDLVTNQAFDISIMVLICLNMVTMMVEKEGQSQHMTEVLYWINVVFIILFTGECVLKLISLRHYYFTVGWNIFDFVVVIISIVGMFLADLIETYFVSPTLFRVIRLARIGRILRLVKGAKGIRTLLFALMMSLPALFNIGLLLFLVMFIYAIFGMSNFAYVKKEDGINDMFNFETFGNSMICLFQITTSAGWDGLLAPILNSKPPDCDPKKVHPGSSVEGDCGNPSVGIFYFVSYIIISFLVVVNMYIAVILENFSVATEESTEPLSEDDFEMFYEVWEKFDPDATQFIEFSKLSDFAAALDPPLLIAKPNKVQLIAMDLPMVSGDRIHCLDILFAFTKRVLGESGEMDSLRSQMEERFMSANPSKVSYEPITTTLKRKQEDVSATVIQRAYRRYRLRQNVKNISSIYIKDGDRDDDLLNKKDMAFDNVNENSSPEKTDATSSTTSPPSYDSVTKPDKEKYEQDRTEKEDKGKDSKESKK

Molecule | IC50 of inhibition of hNav1.7 currents, whole-cell patch clamp, HEK293T
ACLGFGEKCNPSNDKCCKSSSLVCSQAHKWCKYDL [Ca2a K27A] | 4.07 µM
ACLGFGEKCNPSNDKCCKSSSLVCSQKHKWCAYDL [Ca2a K32A] | > 30 µM

Target: human voltage-gated sodium ion channel Nav1.7 (human)
Assay: not given
Details: not given
Remark: another data set of the same source

Molecule | IC50 of inhibition of hNav1.7 currents, whole-cell patch clamp, HEK293T
CLGFGEKCNPSNDCCKSSSLVCSQKHKWCKY [truncated peptide T9 (from Ca2a)] | 67.3 µM
CLGFGEKCNPSNKCCKSSSLVCSQKHKWCKY [truncated peptide T10 (from Ca2a)] | 53.5 µM
CLGFGEKCNPSDKCCKSSSLVCSQKHKWCKY [truncated peptide T11 (from Ca2a)] | 49.2 µM
CLGFGEKCNPDCCKLVCSQKWCKY [truncated peptide T12 (from Ca2a)] | > 50 µM
CLGFGEKCNDKCCKLVCSQHKWCKY [truncated peptide T13 (from Ca2a)] | 8.89 µM
CLGFGEKCCCKSSSLVCSQKHKWCKY [truncated peptide T1 (from Ca2a)] | 14.7 µM
CLGFGEKCNPSKCCKSLVCQKHKWCKY [truncated peptide T2 (from Ca2a)] | 16.5 µM
CLGFGEKCNNDKCCKSLVCQKHKWCKY [truncated peptide T3 (from Ca2a)] | 39.6 µM
CLGFGEKCNDKCCKSSSCSQKHKWCKY [truncated peptide T4 (from Ca2a)] | > 100 µM
CLGFGEKCNDKCCKSSSLCSQKHKWCKY [truncated peptide T5 (from Ca2a)] | > 100 µM
CLGFGEKCNDKCCKSSSVCSQKHKWCKY [truncated peptide T6 (from Ca2a)] | > 100 µM
CLGFGEKCNPSDKCCKSSSVCSQKHKWCKY [truncated peptide T7 (from Ca2a)] | > 100 µM
CLGFGEKCPSNDKCCSSSLVCSQKHKWCKY [truncated peptide T8 (from Ca2a)] | > 100 µM

What follows are molecules tested against human Nav1.7 (hNav1.7) channel (Homo sapiens, UniProt Q15858) (assay: Whole-cell patch-clamp inhibition of hNav1.7 currents). Details: compared to Ca2a, WT hNav1.7 in HEK293T.
human Nav1.7 (hNav1.7) channel, sequence (Q15858 whole entry): as the sequence (Q15858 whole entry) above
Type: cell-based

Molecule | inhibitory activity against Nav1.7 (in words)
K18A: K18A mutant of Ca2a (ACLGFGEKCNPSNDKCCASSSLVCSQKHKWCKYDL; ends and bridges not checked; cysteine pairing not given here) [Peptide K18A] | retained most of its inhibitory activity

Same assay, conditions: ratio of mutant IC50 to WT peptide IC50, hNav1.7 in HEK293T

Molecule | fold change in IC50 / affinity for Nav1.7 compared to WT Ca2a
W30A: W30A mutant of Ca2a (ACLGFGEKCNPSNDKCCKSSSLVCSQKHKACKYDL; ends and bridges not checked; cysteine pairing not given here) [Peptide W30A] | 20 fold

Target: human voltage-gated sodium ion channel Nav1.7 (human)
Assay: not given
Details: not given
Remark: another data set of the same source

Molecule | IC50 of inhibition of hNav1.7 currents, whole-cell patch clamp, HEK293T
ACLGKGEKCNPSNDKCCKSSSLVCSQKHKWCKYDL [Ca2a F5K] | > 20 µM
ACLGFGEKCNPSNDKCCKSSSLVCSQKKKWCKYDL [Ca2a H28K] | > 20 µM
ACLGFGEKCNPSNDKCCKSSSLVCSQKHKKCKYDL [Ca2a W30K] | > 20 µM
ACLGFGEKCNPSNDKCCKSSSLVCSQKHKWCKKDL [Ca2a Y33K] | > 20 µM
ACLGFGEKCNPSNDKCCKSSSLVCSQKRKWCKYDL [Ca2a H28R] | 14.9 µM
